Source: patent US20060052301A1, “Splice variants of peptide YY, neuropeptide Y, pancreatic peptide Y and Amylin, and uses thereof” (priority 2004, published 2006)

B1: Amylin: 37-amino acid monomeric polypeptide hormone co-secreted with insulin from pancreatic beta cells (peptide, listed as Homo sapiens)
chain: MGILKLQVFLIVLSVALNHLKATPIESHQVEKRKCNTATCATQRLANFLVHSSNNFGAILSSTNVGSNTYGKRNAVEVLKREPLNYLPL

How the values were obtained:
[1] = In-vitro stability study in acetate buffer (Alzet pump model, HPLC); assay type: physicochemical; details: 20 mM acetate buffer pH 4.0, 37° C., 28 days
Method: (Alzet in-vitro protocol, DURECT Corporation, Calif., USA) following the analysis of the solutions by HPLC.
In all the cases 2 or 3 different experiments were carried out.

ob/ob female mice = test: Treatment effects on body weight and food intake, continuous infusion by Alzet mini-osmotic pump; assay type: in vivo; details: 300 or 1000 μg/Kg/day
Method: Assessment of potential treatment effect on body weight and food intake by PYY variants of the present invention is performed under blinded conditions. The test system includes 40 ob/ob female mice, each about 50 g & 12 weeks of age at study initiation, in 5 groups (n=8), housed 4 per cage.
The first week, representing the first stage of the experiment, is the first acclimatization stage, when the 12 hours light and dark cycles regime is applied at the same hours of the day (light cycle is between 6:30-18:30). The viability check and clinical signs observations are checked daily.
The second week of the experiment, is the second acclimatization stage, when the same 12 hours/12 hours light and dark cycles regime is applied. At this stage, every day at the same time each day, the following parameters are assessed: daily viability check and clinical signs observations, including for example, changes in skin, fur, eyes, mucous membranes, secretions, activity and response to handling, as well as any unusual behavior, sleep and coma; body weight measurement 3 times/week; and food consumption measurement 1 time/daily for 5 days a week.
The third stage, days 15-43 (weeks 3-6 of the experiment), is the test compound administration stage.
On day 15, an Alzet mini-osmotic pump (model 2004), is surgically inserted into each test animal, under general anesthesia. […]

[2] = in rats, in rabbits, and in humans with Paget's disease; cited from earlier work

Row | Molecule | Purity (%) (average ± stdev) ([1]; high dose (PYY[3-36] 10.6 mg/ml; PYY variant [3-42] 12.8 mg/ml)) | Purity (%) (average ± stdev) ([1]; low dose (PYY[3-36] 3.3 mg/ml; PYY variant [3-42] 3.9 mg/ml)) | body weight gain (ob/ob female mice; 28 days, versus control group) | food intake (ob/ob female mice; especially during the first days of the study) | lowering of plasma calcium [2]
1 | PYY variant: PYY splice variant skipping exon 3, residues 3-42, SEQ ID NO:75; lacks last Tyr, adds 7 C-terminal residues SEGPDLW | 72.3 ± 0.2 | 69.2 ± 0.6 | gain significantly less weight than the control group | significant effect of reduction in the food intake | –
2 | B1 | – | – | – | – | up to 20%
